Columns and labels:
[1] = system: T1, MbdR-His6 (Azoarcus sp. CIB), ORF:e0c75ca7; experiment: DNase I footprinting; settings: EMSA: 20 mM Tris-HCl pH 7.5, 10% glycerol, 50 mM KCl, 0.05 nM probe, 250 ug/ml BSA, 50 ug/ml salmon sperm DNA, 20 min 30 C; footprinting: same buffer, 2 nM …
T1 sequence: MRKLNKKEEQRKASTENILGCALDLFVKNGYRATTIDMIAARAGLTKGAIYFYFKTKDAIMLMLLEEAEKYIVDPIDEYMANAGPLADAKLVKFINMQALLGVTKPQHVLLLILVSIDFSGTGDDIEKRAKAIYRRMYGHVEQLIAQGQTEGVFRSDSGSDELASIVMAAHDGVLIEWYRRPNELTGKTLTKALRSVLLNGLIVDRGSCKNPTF

[2] = system: T1, MbdR-His6 (Azoarcus sp. CIB), ORF:e0c75ca7; experiment: EMSA; settings: EMSA: 20 mM Tris-HCl pH 7.5, 10% glycerol, 50 mM KCl, 0.05 nM probe, 250 ug/ml BSA, 50 ug/ml salmon sperm DNA, 20 min 30 C; footprinting: same buffer, 2 nM …
[3] = target: MbdR-His6 protein (Azoarcus sp. CIB); experiment: AUC; sedimentation velocity (48,000 rpm, 20 °C) and sedimentation equilibrium (5000 to 15,000 rpm) of MbdR-His6 at 11 to 46 μM in 50 mM NaH2PO4, 300 mM KCl, 20 mM imidazole, pH 8; data not shown
[4] = system: MbdR-His6 (Azoarcus sp. CIB); experiment: EMSA; settings: relative Kd; EMSA: 20 mM Tris-HCl pH 7.5, 10% glycerol, 50 mM KCl, 0.05 nM probe, 250 ug/ml BSA, 50 ug/ml salmon sperm DNA, 20 min 30 C; footprinting: same buffer, 2 nM …

Substance	binding [1]	Kd [4] [nM]	other results
AATTCCCTGCGCGCGGCACTATGTCGGGGGAAATTCAGTCATTGCGGAAAACGGCGTTTCCGCGAGCTCGCCAACAAAAGGTCTGACAGCCCCGGTCCCCACATGCGGCTACCATATACCGGCTGGCTGGTATGTGTCAACGACTGATACGGAAGACCTCGAAATCGGAGGGAGGAAAATGGGAAAAGGACCTTTGAGAGCATGGACGGCGCATGGCGAGGAGATGGTATTACGGTAAGTGCTCCACGAGT (double strand) [PB1 probe (251 bp)]	binds	–	Kd [2]: 3.72 nM
ACTGAGGCCCCGCCCAAGTTTTCATTATCTCTAGTACCGGCAAAGAAGGGCCAAACAGATCTATTGCATACTATCCGGTTAGTACGTCTTTTGACCAATTGATCTACACGAGGGGAAACCATGTTCGAGAATTTCAACCATAGTGCTCTGCGTCTTGGAGCGCCAGGCGCTTTAGCGCAGCGTTTGCTGCCGAAGCATCAGGGTCACTATGTTGATGCGCATTGAGGGAATT (double strand) [PA probe (225 bp)]	binds	–	binding [2]: binds
MbdR-His6 protein (natural protein)	–	–	stoichiometry N [3]: 2
PB1 probe (251 bp)	–	3.72	–
PO probe (271 bp)	–	1.71	–
